Assay results as given in the supplement of paper PMC7125110.
± gives the standard error. For some assays here: This sample holds only a part of the variants without activity.

B1: glmS ribozyme (parent)
chain: AUAAAAGCGCCAGAACUACAGAAAUGUAGUUGACGAGGAGGAGGUUUAUCGAAUUUUCGGCGGAUGCCUCCAAA

Assays:
Details in all cases: with glucosamine-6-phosphate
glucosamine-6-phosphate [1] = variants of: B1; assay: kcat; higher = faster cleavage; RNA array
How it was run: (§1)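 Over ~14 h at 37 °C, tiles were imaged as glucosamine-6-phosphate (40 μM to 10 mM) in HEPES/KCl/Mg(OAc)2 buffer flowed across sequenced MiSeq chips. The chips carried barcoded ribozyme variants transcribed in situ by E. coli RNA polymerase and tracked with a hybridised Cy3 probe. After normalisation to baseline and to non-cleaving reference variants, one- or two-exponential decay fits of per-tile medians gave kobs. kcat and KM followed from weighted Michaelis–Menten fits across concentrations.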

glucosamine-6-phosphate [2] = variants of: B1; assay: self-cleavage kobs at 640 uM GlcN6P; higher = faster cleavage; RNA array
How it was run: as §1

glucosamine-6-phosphate [3] = variants of: B1; assay: self-cleavage kobs at 2500 uM GlcN6P; higher = faster cleavage; RNA array
How it was run: as §1

glucosamine-6-phosphate [4] = variants of: B1; assay: self-cleavage kobs at 10000 uM GlcN6P; higher = faster cleavage; RNA array
How it was run: as §1

glucosamine-6-phosphate [5] = variants of: B1; assay: self-cleavage kobs at 40 uM GlcN6P; higher = faster cleavage; RNA array
How it was run: as §1

glucosamine-6-phosphate [6] = variants of: B1; assay: KM; higher = weaker cofactor use; RNA array
How it was run: as §1

glucosamine-6-phosphate [7] = variants of: B1; assay: self-cleavage kobs at 160 uM GlcN6P; higher = faster cleavage; RNA array
How it was run: as §1

Row | Variant | kcat (glucosamine-6-phosphate [1]) [s⁻¹] | self-cleavage kobs at 640 uM GlcN6P (glucosamine-6-phosphate [2]) [s⁻¹] | self-cleavage kobs at 2500 uM GlcN6P (glucosamine-6-phosphate [3]) [s⁻¹] | self-cleavage kobs at 10000 uM GlcN6P (glucosamine-6-phosphate [4]) [s⁻¹] | self-cleavage kobs at 40 uM GlcN6P (glucosamine-6-phosphate [5]) [s⁻¹] | KM (glucosamine-6-phosphate [6]) [µM] | self-cleavage kobs at 160 uM GlcN6P (glucosamine-6-phosphate [7]) [s⁻¹]
1 | A48U C67A | 0.000213 ± 8.2e-05 | 0.00012 ± 1.5e-05 | 0.000105 ± 2.4e-05 | 0.000298 ± 4.3e-05 | – | – | –
2 | C11U A12U U56C | 0.00124 ± 0.00036 | 0.000258 ± 5e-05 | 0.000639 ± 0.00015 | 0.00106 ± 0.00015 | 5.74e-05 ± 1.7e-05 | – | –
3 | G35A G38A | < 1e-05 | – | – | – | – | – | –
4 | U57G C68A C70U | 3.59e-05 ± 1.7e-05 | 5.38e-05 ± 1.8e-05 | – | – | – | – | –
5 | U65G C70U | 0.00416 ± 0.00036 | 0.000728 ± 6e-05 | 0.00238 ± 0.00036 | 0.00315 ± 0.00024 | 5.75e-05 ± 5e-06 | 2980 ± 340 | 0.000203 ± 1.7e-05
6 | C58G U65G | < 1e-05 | – | – | – | – | – | –
7 | A6C C16G | 1.5e-05 ± 3.9e-07 | < 1e-05 | – | – | < 1e-05 | 9790 ± 480 | < 1e-05
8 | A15U U30A | 0.0245 ± 0.006 | 0.0102 ± 0.0044 | – | 0.0272 ± 0.0062 | 0.00246 ± 0.0004 | 377 ± 130 | –
9 | A52U G66A | 0.000745 ± 0.00034 | – | 5.37e-05 ± 1.4e-05 | 0.000185 ± 2.9e-05 | – | – | –
10 | G40U G41U | 8.36e-05 ± 7.4e-06 | 2.92e-05 ± 8e-06 | 7.1e-05 ± 8.5e-06 | 7.34e-05 ± 7e-06 | < 1e-05 | 901 ± 330 | –
11 | U46G U56C | 0.00203 ± 0.0005 | – | 0.000799 ± 0.00013 | 0.00131 ± 0.00016 | – | 4990 ± 2300 | 4.23e-05 ± 2.1e-05
12 | A14C G66A | 0.00362 ± 0.0004 | 0.000879 ± 0.00024 | 0.00158 ± 0.00047 | 0.00316 ± 0.00037 | 7.72e-05 ± 1.3e-05 | 1940 ± 370 | –
13 | G40U U45C C70U | 0.000444 ± 6.4e-05 | 0.000186 ± 3.9e-05 | 0.00025 ± 8.8e-05 | 0.000426 ± 7.7e-05 | – | 1000 ± 370 | –
14 | U31C G41C | 4.88e-05 ± 2e-05 | – | – | – | – | – | –
15 | A33U U55G | 0.000103 ± 1e-05 | 3.4e-05 ± 1.3e-05 | 5.38e-05 ± 7.7e-06 | 8.77e-05 ± 1e-05 | – | 1990 ± 570 | –
16 | U31A U55G C67G | 0.000655 ± 6.8e-05 | 0.000467 ± 0.00012 | 0.000505 ± 9.5e-05 | 0.000735 ± 0.00019 | 5.68e-05 ± 1.9e-05 | 428 ± 100 | 0.000166 ± 5.4e-05
17 | A53U U54A | 0.0314 ± 0.0026 | 0.00817 ± 0.0019 | 0.0161 ± 0.0071 | 0.0279 ± 0.0062 | 0.000727 ± 0.00011 | 1760 ± 180 | 0.00236 ± 0.00084
18 | U55A C58G | 0.00041 ± 0.00019 | 2.55e-05 ± 1.3e-05 | 4.69e-05 ± 1.5e-05 | 0.000153 ± 2.5e-05 | – | – | –
19 | A39G C70G | 0.000172 ± 3.8e-05 | 0.000314 ± 4.7e-05 | 0.000245 ± 3.2e-05 | 0.000132 ± 1.8e-05 | 0.000112 ± 1.6e-05 | – | 0.000143 ± 2.3e-05
20 | U65A C68U | 0.000403 ± 0.00012 | 0.000186 ± 2.8e-05 | 0.000287 ± 4.2e-05 | 0.000655 ± 8.7e-05 | 3.81e-05 ± 8.7e-06 | – | 0.000111 ± 1.8e-05
21 | U57C C67A | 3.95e-05 ± 1.7e-06 | 3.33e-05 ± 1.5e-05 | 3.6e-05 ± 1.1e-05 | 3.97e-05 ± 1.2e-05 | – | 157 ± 71 | –
22 | U31G G37A | 0.00148 ± 0.00038 | 0.000144 ± 2.8e-05 | 0.000466 ± 7.3e-05 | 0.000999 ± 0.00019 | – | 5250 ± 1900 | 6.42e-05 ± 1.6e-05
23 | A15G G40U | 0.00552 ± 0.00099 | 0.00181 ± 0.0002 | 0.00448 ± 0.00068 | 0.00473 ± 0.00045 | 0.000202 ± 2.1e-05 | 1330 ± 360 | 0.000466 ± 6.2e-05
24 | G13U G41C | 0.000161 ± 1.8e-05 | < 1e-05 | – | – | < 1e-05 | – | < 1e-05
25 | U65A C67G | 0.000463 ± 7.8e-05 | 0.000173 ± 2.2e-05 | 0.000422 ± 6.2e-05 | 0.000386 ± 6.4e-05 | 2.9e-05 ± 8.7e-06 | 958 ± 270 | 6.44e-05 ± 9.1e-06
26 | G40A U46C | 0.00192 ± 0.00051 | 0.000699 ± 0.00012 | 0.00107 ± 0.00036 | 0.00192 ± 0.00054 | 7.21e-05 ± 1.4e-05 | 1280 ± 450 | 0.000173 ± 3.9e-05
27 | G44U G66A | 0.000401 ± 9.1e-05 | 0.000153 ± 3.3e-05 | 0.000236 ± 4.4e-05 | 0.000438 ± 0.0001 | – | – | –
28 | G40U U65G G66U | 3.4e-05 ± 4.8e-06 | – | – | 3.38e-05 ± 1.5e-05 | < 1e-05 | – | –
29 | A15U G29U | 0.00358 ± 0.0016 | – | 0.0014 ± 0.00028 | 0.00431 ± 0.00044 | 0.000116 ± 1.1e-05 | – | 0.000217 ± 7.1e-05
30 | U30C C67A | 8.57e-05 ± 7.5e-06 | 7.21e-05 ± 1.3e-05 | 6.84e-05 ± 1.1e-05 | 8.63e-05 ± 8.9e-06 | – | – | –
